B2: Nxf2[541-841], subunit of recombinant SFiNX (domain or fragment)
chain: LPSEYVRAVKEVFPQLTTLDGVDLQTNPGQSLQKNFLCDTGAYELVGAFLENYLREFENDEFRHNLYKYYSENSIFTLTCNYNVVQNHQTPKILQRLSKYNRHARNLRNKDYSKASDGVFFGCTYIVEILLQLPRVTHDFHSLQTDVMHYNGKGAVIYVAGLLRDEPPSTRNGHGSKTDIGGVLLGFSRQFVVTFDEANLGLGKRARRLKIANERLHITNPSKTAIRNAFSVNFPDPSERQAEEDSLDVKDHKLLLFQEVTGLISTWVTSIVEEADWDFERALKLFIQKNADHEIPDLAFA
B3: Panx[263-541], subunit of recombinant SFiNX (domain or fragment)
chain: ASSQNESSKERKLRDTELDYVPVRPDEHFIRPIKFSNLIERRPPQVEFNTVNLSKADKRSLAVARAELVLEQIQQKANKEEPPEFHMVDTICKLPVNESFRNQDCFENPSPICNNMNVVYKFNSTPGTRIDLSKWGLETVPEATKRLLRLLGIDVARLKELQSTVKPSQRILKLKKEQLEQGLAPTEEQETATLYKNAATQTERRTATRDAGTQVRLESKLNGAFWQNPHFDPMNLTQHQSNVMLALQEIYQTLPSATMAVKLSRALAPALAIIKGRQP
B4: Drosophila melanogaster LC8 (residues 1-89), co-expressed with Panx peptides (natural protein)
chain: MSDRKAVIKNADMSEEMQQDAVDCATQALEKYNIEKDIAAYIKKEFDKKYNPTWHCIVGRNFGSYVTHETRHFIYFYLGQVAILLFKSG

Like-named read-outs stand apart in the source and are kept apart here.

Series [1] deals with B4. Nature of the series: SEC-MALS. Background: In gel filtration, larger molecules generally elute earlier.
Series [2] concerns the target Nxt1, subunit of recombinant SFiNX (Drosophila, UniProt Q9V3H8 1-133). Description: SEC-MALS.
The target in series [3] is B2. Description: SEC-MALS.
Series [4] concerns the molecule itself. Description: SEC-MALS.
Series [5] concerns the molecule itself. Nature of the series: SEC-MALS. The source holds these as a separate data set.
Series [6] deals with B3. Nature of the series: SEC-MALS.
For series [7], the target named is Drosophila melanogaster LC8 (residues 1-89), expressed in isolation for ITC (Drosophila melanogaster, UniProt Q24117 1-89). Description: ITC. For orientation: In ITC the heat of successive injections is recorded.

B1: Panx peptide residues 455-480 (Panx1+2), both LC8 binding sites (peptide)
peptide: TLYKNAATQTERRTATRDAGTQVRLE
Turning to B1, in series [1], the stoichiometry N (usually the number of molecules, sites or subunits per partner or assembly) was 2 Panx peptides per two LC8 homodimers.
Consider B2, for which the binding result in series [2] is listed as “binds”.
Consider B3, for which the binding result in series [3] is “binds”.
Take B4: the “stoichiometry N” value in “SEC-MALS [4]” came out at 2.

B5: recombinant SFiNX consisting of Panx[263-541], Nxf2[541-841], Nxt1, and LC8 (complex)
chain 1: ASSQNESSKERKLRDTELDYVPVRPDEHFIRPIKFSNLIERRPPQVEFNTVNLSKADKRSLAVARAELVLEQIQQKANKEEPPEFHMVDTICKLPVNESFRNQDCFENPSPICNNMNVVYKFNSTPGTRIDLSKWGLETVPEATKRLLRLLGIDVARLKELQSTVKPSQRILKLKKEQLEQGLAPTEEQETATLYKNAATQTERRTATRDAGTQVRLESKLNGAFWQNPHFDPMNLTQHQSNVMLALQEIYQTLPSATMAVKLSRALAPALAIIKGRQP
chain 2: LPSEYVRAVKEVFPQLTTLDGVDLQTNPGQSLQKNFLCDTGAYELVGAFLENYLREFENDEFRHNLYKYYSENSIFTLTCNYNVVQNHQTPKILQRLSKYNRHARNLRNKDYSKASDGVFFGCTYIVEILLQLPRVTHDFHSLQTDVMHYNGKGAVIYVAGLLRDEPPSTRNGHGSKTDIGGVLLGFSRQFVVTFDEANLGLGKRARRLKIANERLHITNPSKTAIRNAFSVNFPDPSERQAEEDSLDVKDHKLLLFQEVTGLISTWVTSIVEEADWDFERALKLFIQKNADHEIPDLAFA
chain 3: […]
chain 4: MSDRKAVIKNADMSEEMQQDAVDCATQALEKYNIEKDIAAYIKKEFDKKYNPTWHCIVGRNFGSYVTHETRHFIYFYLGQVAILLFKSG
B5: the “stoichiometry N” value in “SEC-MALS [5]” was 2.

B6: His6-LC8, subunit of recombinant SFiNX (natural protein)
chain: MSDRKAVIKNADMSEEMQQDAVDCATQALEKYNIEKDIAAYIKKEFDKKYNPTWHCIVGRNFGSYVTHETRHFIYFYLGQVAILLFKSG
With B6, the binding result in series [6] is reported as “binds”.

B7: Panx peptide residues 455-466 (Panx1), LC8 binding site #1 (peptide)
peptide: TLYKNAATQTER
For B7, in series [1], the “stoichiometry N” value was 2 Panx peptides per one LC8 homodimer. The Kd (in general, the concentration at which binding is half-saturated) in series [7] is roughly 75 nM.

B8: Panx peptide residues 467-480 (Panx2), LC8 binding site #2 (peptide)
peptide: RTATRDAGTQVRLE
As for B8, the “stoichiometry N” value in series [1] is 2 Panx peptides per one LC8 homodimer. The Kd in series [7] is roughly 140 nM.

The record behind these values is doi:10.1101/2021.01.08.425619 (bioRxiv, 2021).
